{
  "source": "the DeepSol protein solubility set",
  "experiment": "soluble on expression in E. coli; label from the status in PepcDB or PDB records",
  "data": [
    {"sequence": "MGSDKIHHHHHHMQEIELKFLVPEPRLKGLMRQAKIKSSQVTQLAAHYYDTPDQQLAQAGIGLRIRQEGNAWVQTIKASGDGIAARLEHNLTLDNEQVQAMLDNNELLPDLTIYKDTPIAPALADFKLKKLAKQLTRLYVTDVERTTRLLIKDTGDEVVNSIEMAYDYGEIIHGTDDTQRDVIQEIEFELISGELDFLFSTAKTWCQRYKLCLSTVTKAERGGRLIKGQSHTPATAADLSELNIDKKIGMPAFLRAVVHNCLLQILPNSSAIVAGSKDNEHLLQLSIGIERLHTVLQAFDSFSDEINPDWSAILQQTATLLTEYRKLAYLSTHIEPRLQKDGAPIVDWTADIDALKITPIAAISTNHFQIMLLELIAFTMSDPSLEPQTDKLAINKLEKILVKYHEKLLKAEQYLEDRYDESDSELENESIIKALHNLHDHLKDLRYISELVAPLYGKKKTKRWLKRTVKAQKTLGQQLNMSDYQQYYQSKASSDFAALYAAGWLNAVLIPMEKATEKRLDKFYACSVFW", "values": [
      {"measurement": "soluble on expression in E. coli", "result": "not soluble"}
    ]},
    {"sequence": "MGSDKIHHHHHHMKIFLDTANLEEIKKGVEWGIVDGVTTNPTLISKEGAEFKQRVKEICDLVKGPVSAEVVSLDYEGMVREARELAQISEYVVIKIPMTPDGIKAVKTLSAEGIKTNVTLVFSPAQAILAAKAGATYVSPFVGRMDDLSNDGMRMLGEIVEIYNNYGFETEIIAASIRHPMHVVEAALMGVDIVTMPFAVLEKLFKHPMTDLGIERFMEDWKKYLENLKK", "values": [
      {"measurement": "soluble on expression in E. coli", "result": "soluble"}
    ]},
    {"sequence": "MSLDKVERRLYELYEKAINYEPLSKEEALYILEVDDIYVPFLVHLAQKIKKHYFPENEVEFCSIINAKSGACSEDCKFCAQSKYYKTPINVYNLVPVDEMVEGAIRGVEFGANRYCIVLSGKSATKEEVERITEAVKEIKNEGLPINVCVSAGTLDEESLKKLKEAGVKRINHNLETSRNFFKNIVTTHTWEDRYETIKRIKKVGLSTCSGGIFGMGESNEDRVDMALTYRELEVDSIPLNFLMPIEGTPMENAPGVEVMEALKIIAMFRFTNPKAELRLCGGREQNLRDFHGMATLMTNAMMVGGYLTRAGRDIKKDYQLLKDLKAKRKVSVEEGHHHHHH", "values": [
      {"measurement": "soluble on expression in E. coli", "result": "soluble"}
    ]},
    {"sequence": "MKLFERIHQDTEIRQIYDAIGQMEDEEAGWAYHNWFHVTNVVAMTEMILKQLAVSEEYLEAAKIAALLHDVGALQGKAGHALRGKQFAEAYFRKQKICLPYQEEILSSIENHSNGFDSEELMTLALIISDKLDITTSRVAKAGYFVPGMRQFQFLKKIEIMLSEQEVCVSFTAEEELDLEELNAFYFMPKVFKAIAAFSGKIQRRPIVLLNNQEWPVPKQKNPSTVHLEHHHHHH", "values": [
      {"measurement": "soluble on expression in E. coli", "result": "soluble"}
    ]},
    {"sequence": "MIFAKGHGTQNDFVLLPDVDAELVLTAARVAALCDRRKGLGADGVLRVTTAGAAQAVGVLDSLPEGVRVTDWYMDYRNADGSAAQMCGNGVRVFAHYLRASGLEVRDEFVVGSLAGPRPVTCHHVEAAYADVSVDMGKANRLGAGEAVVGGRRFHGLAVDVGNPHLACVDSQLTVDGLAALDVGAPVSFDGAQFPDGVNVEVLTAPVDGAVWMRVHERGVGETRSCGTGTVAAAVAALAAVGSPTGTLTVHVPGGEVVVTVTDATSFLRGPSVLVARGDLADDWWNAMG", "values": [
      {"measurement": "soluble on expression in E. coli", "result": "not soluble"}
    ]},
    {"sequence": "MGHHHHHHSHMTDFEDKQVANNETMEDAMNSVQEVSVGDIVKGEVLAIEDKQVVVGIEGAGVEGVVPAKELSTLPVEDVHELVKVGDVLDLVVITSIGKDKENGSYLLSKRRLDAKKVWEEIEQDFQAGKVIEAPVTNVVKGGLVVDVGVRGFVPASMVEDHFVADFSEYKGQTLAFKIIEIEPSENRLILSHKAVVEAEKESKKEELLSSLHDGDVVEGKVARLTDFGAFIDLGGVDGLVHVSEIAHQHVGKPSDALTVGEDVQVKILSINPEEGRISLSIKETLPGPWTDIETKAAAGTVLDGTVKRLTSFGAFVEVFPGVEGLVHISQISHKHIATPHEVLHEGDQVQVKVLEVNPEEHRIALSIKALEPKPESQEEPKEEQEYELPEENTGFTMGDILGDALSDAKEEE", "values": [
      {"measurement": "soluble on expression in E. coli", "result": "soluble"}
    ]},
    {"sequence": "HSGEDLPMVAPGNVRVNVVNSTLAEVHWDPVPLKSIRGHLQGYRIYYWKTQSSSKRNRRHIEKKILTFQGSKTHGMLPGLEPFSHYTLNVRVVNGKGEGPASPDRVFNTPEG", "values": [
      {"measurement": "soluble on expression in E. coli", "result": "soluble"}
    ]},
    {"sequence": "FTANIKGLTQASRNANDGISIAQTTEGALNEINNNLQRVRELAVQSANSTNSQSDLDSIQAEITQRLNEIDRVSGQTQFNGVKVLAQDNTLTIQVGANDGETIDIDLKQINSQTLGLDTLNVQQKYKVSDTAATVTGYADTTIALDNSTFKASATGLGGTDQKIDGDLKFDDTTGKYYAKVTVTGGTGKDGYYEVSVDKTNGEVTLAGGATSPLTGGLPATATEDVKNVQVANADLTEAKAALTAAGVTGTASVVKMSYTDNNGKTIDGGLAVKVGDDYYSATQNKDGSISINTTKYTADDGTSKTALNKLGGADGKTEVVSIGGKTYAASKAEGHNFKAQPDLAEAAATTTENPLQKIDAALAQVDTLRSDLAAVQNRFNSAITNLGNTVNNLTSAR", "values": [
      {"measurement": "soluble on expression in E. coli", "result": "soluble"}
    ]},
    {"sequence": "MKPMSDYDIPTTENLYFQGAMVTTPGKPNDPDNPNNNYIKPTKVNKNKEGLNIDGKEVLAGSTNYYELTWDLDQYKGDKSSKEAIQNGFYYVDDYPEEALDVRPDLVKVADEKGNQVSGVSVQQYDSLEAAPKKVQDLLKKANITVKGAFQLFSADNPEEFYKQYVATGTSLVITDPMTVKSEFGKTGGKYENKAYQIDFGNGYATEVVVNNVPKITPKKDVTVSLDPTSENLDGQTVQLYQTFNYRLIGGLIPQNHSEELEDYSFVDDYDQAGDQYTGNYKTFSSLNLTMKDGSVIKAGTDLTSQTTAETDATNGIVTVRFKEDFLQKISLDSPFQAETYLQMRRIAIGTFENTYVNTVNKVAYASNTVRTTT", "values": [
      {"measurement": "soluble on expression in E. coli", "result": "soluble"}
    ]},
    {"sequence": "MGSDKIHHHHHHMIIMTYYTFVKPFFIKAVTHLHVSSGTSVEEEVDLPFQRDELNYPTIFASSLKGAIKSFLLKEYSNAREIIYKVLGSDENPDEASLGSFLDAVLFAIPARSIGVSGLDEAWVYVTTYELLRKVKSLLESMNTLSATQFTSLLDAINNILQESKNLIISDNAASVILNEDFYVELSNIQNEYIQSLLGDMLIENSTYNQSNQNSQSQGNHLVKPLIVLKDSIGREVINRSLIRVRRIKIKRSSKTVEEGGLWSEEYVPVNSLFFSSFLARGSKDTAYFADCILRKTRYLILGGKETIGKGIVELRWLND", "values": [
      {"measurement": "soluble on expression in E. coli", "result": "not soluble"}
    ]},
    {"sequence": "MTIGTLPFDQETIRQRASEVNEAAWLTEFRLQALAQATELPMPTPDKTKIDKWDFIGKGDAAKQEPVSSLTELPEAVKNLIDENNSVLVQRTGTTAFVSLADEAKEKGVIFTDIVTAATEHAELVQKYLMKDGVKVDEHRLTALHAALINGGAFVYVPKNVVLETPLQAVFLVDGEEANVYNHVLFVADANSTATYVENYVANENAKGIANIVAEVIVEQGAQVKFGAVDLLAKDVTTYVNRRGVVGRDGRIDWALGLMNDGNTISENVTNLMGDGSYADTKTVTIGRGNQTQNFTTKVVHFGKHSEGWILKHGVQKDSATSIFNGIGKIEHGASKSNAQQSSRVLMLDEKARGDANPILLIDEDDVMAGHAASVGRVDPVQLYYLMSRGIPKREAERLVIHGFLAPVVNELPIEGVKAQLVEVIERKVR", "values": [
      {"measurement": "soluble on expression in E. coli", "result": "not soluble"}
    ]},
    {"sequence": "MGSSHHHHHHGGTGENLYFQGGSGPAREKAIVLIDGPALVHRWYHRWSYTTERYGTSLDVKQFAIKNARFMIATAHSFDPAHMAQHLLSPQTEYAHTPKHNRIIVCFDHGDGGRRQIYADYKANRLQKAVTSEFRLIERVAKKVFADEPRESLLVVPDCDAGLANLNAEADDMIATLAFFNQQNTRPTVVMSHDYDLYQLVDEAKKSYHYDIRTKHLVSERGVMERVGVPPKLVRDFKSLAGDSSDNIPGVNGIGKVRARNLLKKYGDLDGILFKGIKKETGHLGELLNEGAKMALISRQLVDFRMCPKVIKVCESFMRI", "values": [
      {"measurement": "soluble on expression in E. coli", "result": "not soluble"}
    ]},
    {"sequence": "MEQTLKITSVLSDPTRFHIYEYIAKVHREVSVQEIAEKFHIHPNVARLHLTKLEDVRMVVSDTQKTGKGGRPSRLYRLSDEVIGLYFPFRDYQLLARIAIQTMAKLGPIGSEALRETGKRFGRELIASRLPHNGAASALTMADKIAIMEEAAEAAGFLPQLHYDEEKGVLYLDIFNCPFKEIAAQAPDTVCGMHHSFLEGMVETLFAGAEVTETENMMEGSHRCAYRIVIRP", "values": [
      {"measurement": "soluble on expression in E. coli", "result": "not soluble"}
    ]},
    {"sequence": "SHMQLKFAECLEKKVDMSKVNLEVIKPWITKRVTEILGFEDDVVIEFIFNQLEVKNPDSKMMQINLTGFLNGKNAREFMGELWPLLLSAQENIAGIPSAFLELKKEEIKQR", "values": [
      {"measurement": "soluble on expression in E. coli", "result": "soluble"}
    ]}
  ]
}
